This experiment has as its target T1, Wildtype ubiquitin (human, UniProt P0CG48 1-76).
T1 construct: also called wt; not shown: N-terminal 6xHis tag of the pET derivative vector
In words: biolayer interferometry, USP14catC114A on sensors, steady state fit. A general note: Biolayer interferometry detects binding as a change in optical thickness at a sensor tip.

For orientation: Kd means the free concentration of one partner at which half of the binding sites on the other are occupied at equilibrium, for simple one-to-one binding. Low values mean tighter binding, high ones weaker binding.

B1: USP14catC114A (enzyme, UniProt P54578 91-494, looked up)
chain: DMTEEQLASAMELPCGLTNLGNTAYMNATVQCIRSVPELKDALKRYAGALRASGEMASAQYITAALRDLFDSMDKTSSSIPPIILLQFLHMAFPQFAEKGEQGQYLQQDANECWIQMMRVLQQKLEAIEDDSVKETDSSSASAATPSKKKSLIDQFFGVEFETTMKCTESEEEEVTKGKENQLQLSCFINQEVKYLFTGLKLRLQEEITKQSPTLQRNALYIKSSKISRLPAYLTIQMVRFFYKEKESVNAKVLKDVKFPLMLDMYELCTPELQEKMVSFRSKFKDLEDKKVNQQPNTSDKKSSPQKEVKYEPFSFADDIGSNNCGYYDLQAVLTHQGRSSSSGHYVSWVKRKQDEWIKFDDDKVSIVTPEDILRLSGGGDWHIAYVLLYGPRRVEIMEEESEQ
modifications: monobiotinylated at the C-terminal Avi tag
notes: range 91-494; N-terminal His tag removed with TEV protease; also called catalytic domain of USP14 (residues D91-Q494) with a C114A mutation; not shown: C-terminal Avi tag
For the molecule B1, the affinity, expressed as Kd, was 100 µM.

Values taken from patent US20130281314A1 (Genentech, published 2013).
